T1: PUF-8 WT (FP) (Caenorhabditis elegans, UniProt Q09487 172-535)
T1 sequence: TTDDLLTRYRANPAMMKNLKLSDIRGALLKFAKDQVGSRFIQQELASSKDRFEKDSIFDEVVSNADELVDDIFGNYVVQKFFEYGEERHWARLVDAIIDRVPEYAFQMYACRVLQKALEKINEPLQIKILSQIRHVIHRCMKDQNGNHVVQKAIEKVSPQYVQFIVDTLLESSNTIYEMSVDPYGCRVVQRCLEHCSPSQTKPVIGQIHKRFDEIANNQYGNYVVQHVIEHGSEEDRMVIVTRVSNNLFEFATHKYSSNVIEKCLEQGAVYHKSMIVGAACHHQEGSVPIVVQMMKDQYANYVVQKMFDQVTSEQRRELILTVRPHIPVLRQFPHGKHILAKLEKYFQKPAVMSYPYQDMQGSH

T2: MUT-4G (Caenorhabditis elegans, UniProt Q09487 172-535, N318S;H319N;Q322E)
T2 sequence: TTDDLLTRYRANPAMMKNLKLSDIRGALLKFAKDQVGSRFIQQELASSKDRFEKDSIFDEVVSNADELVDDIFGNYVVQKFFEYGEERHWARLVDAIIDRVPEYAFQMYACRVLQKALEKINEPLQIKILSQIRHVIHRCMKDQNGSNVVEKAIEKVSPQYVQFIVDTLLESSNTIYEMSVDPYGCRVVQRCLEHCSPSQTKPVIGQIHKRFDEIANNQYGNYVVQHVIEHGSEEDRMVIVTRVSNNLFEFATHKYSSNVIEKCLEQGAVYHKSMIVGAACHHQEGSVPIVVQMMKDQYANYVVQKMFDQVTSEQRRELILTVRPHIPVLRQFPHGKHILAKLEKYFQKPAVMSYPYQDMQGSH

T3: MUT-4C (Caenorhabditis elegans, UniProt Q09487 172-535, N318C;H319Y;Q322R)
T3 sequence: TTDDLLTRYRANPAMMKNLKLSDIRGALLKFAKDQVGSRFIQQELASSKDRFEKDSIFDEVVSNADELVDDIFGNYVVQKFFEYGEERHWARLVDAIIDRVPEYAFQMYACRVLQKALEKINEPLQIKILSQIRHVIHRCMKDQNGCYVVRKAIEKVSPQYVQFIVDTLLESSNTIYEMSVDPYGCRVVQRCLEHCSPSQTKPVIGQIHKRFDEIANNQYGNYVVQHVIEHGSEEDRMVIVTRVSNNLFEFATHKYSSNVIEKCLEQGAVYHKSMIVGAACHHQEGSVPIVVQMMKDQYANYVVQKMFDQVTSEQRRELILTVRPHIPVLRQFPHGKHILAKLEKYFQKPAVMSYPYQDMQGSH

T4: MUT-4N (Caenorhabditis elegans, UniProt Q09487 172-535, N318A;H319A;Q322A)
T4 sequence: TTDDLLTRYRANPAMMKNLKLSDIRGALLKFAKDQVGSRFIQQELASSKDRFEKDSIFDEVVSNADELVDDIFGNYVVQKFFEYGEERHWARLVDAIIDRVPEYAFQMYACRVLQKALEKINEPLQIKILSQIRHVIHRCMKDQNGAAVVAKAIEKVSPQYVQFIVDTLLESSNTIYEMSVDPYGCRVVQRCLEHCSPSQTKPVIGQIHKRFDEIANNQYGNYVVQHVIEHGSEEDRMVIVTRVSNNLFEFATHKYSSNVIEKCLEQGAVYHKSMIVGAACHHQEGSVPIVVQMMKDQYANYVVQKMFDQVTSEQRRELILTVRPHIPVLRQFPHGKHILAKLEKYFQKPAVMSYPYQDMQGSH

T5: MUT-4A (Caenorhabditis elegans, UniProt Q09487 172-535, N318C;H319R)
T5 sequence: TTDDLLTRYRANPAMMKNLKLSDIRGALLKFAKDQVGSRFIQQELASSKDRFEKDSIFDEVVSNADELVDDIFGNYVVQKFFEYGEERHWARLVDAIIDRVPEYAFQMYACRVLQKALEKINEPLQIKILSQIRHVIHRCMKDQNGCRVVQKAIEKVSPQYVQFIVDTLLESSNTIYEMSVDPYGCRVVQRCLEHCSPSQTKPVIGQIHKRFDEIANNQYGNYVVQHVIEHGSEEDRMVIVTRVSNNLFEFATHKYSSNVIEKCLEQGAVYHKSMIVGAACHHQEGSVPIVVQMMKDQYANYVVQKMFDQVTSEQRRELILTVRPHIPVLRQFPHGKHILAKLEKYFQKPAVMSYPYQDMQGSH

T6: MUT-8G (Caenorhabditis elegans, UniProt Q09487 172-535, N472S;Y473N;Q476E)
T6 sequence: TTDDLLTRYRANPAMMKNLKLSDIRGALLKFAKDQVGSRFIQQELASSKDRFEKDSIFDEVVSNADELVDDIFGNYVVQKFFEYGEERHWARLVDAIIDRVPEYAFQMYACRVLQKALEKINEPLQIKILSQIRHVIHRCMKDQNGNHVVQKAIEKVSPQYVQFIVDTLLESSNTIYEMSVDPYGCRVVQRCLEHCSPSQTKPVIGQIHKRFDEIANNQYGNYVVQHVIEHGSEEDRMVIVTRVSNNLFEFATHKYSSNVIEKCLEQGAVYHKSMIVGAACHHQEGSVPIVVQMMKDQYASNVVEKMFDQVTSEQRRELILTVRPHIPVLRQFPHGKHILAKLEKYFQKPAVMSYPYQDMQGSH


Assays:
Experiment in all cases: fluorescence polarization
PUF-8 WT (FP) = biological target: T1, PUF-8 WT (FP)
MUT-4G = biological target: T2, MUT-4G
MUT-4C = biological target: T3, MUT-4C
MUT-4N = biological target: T4, MUT-4N
MUT-4A = biological target: T5, MUT-4A
MUT-8G = biological target: T6, MUT-8G

Binder | Kd (PUF-8 WT (FP)) [nM] | Kd (MUT-4G) [nM] | Kd (MUT-4C) [nM] | Kd (MUT-4N) [nM] | Kd (MUT-4A) [nM] | binding result (MUT-8G) | binding result (MUT-4G) | binding result (MUT-4N) | binding result (MUT-4C) | binding result (MUT-4A)
UGUAUAUA (ssRNA) [PBE-5U FAM] | 1.27 ± 1.16 | 775 ± 276 | 3.72 ± 0.94 | 313 ± 58.2 | 5.85 ± 1.64 | no binding |  |  |  | 
GGUACAUA (ssRNA) [PBE-1G FAM] | 128 ± 25.1 |  | 207 ± 23 |  | 159 ± 34.1 | no binding | no binding | no binding |  | 
AUACAUGU (ssRNA) [Control RNA FAM] |  |  |  |  |  | no binding | no binding | no binding | no binding | no binding
UGUAGAUA (ssRNA) [PBE-5G FAM] | 12.8 ± 5.63 | 29.8 ± 9.14 | 11.3 ± 3.43 | 180 ± 22.8 | 9.99 ± 3.11 | no binding |  |  |  | 
UGUACAUA (ssRNA) [PBE-5C FAM] | 0.84 ± 1.08 | 1350 ± 507 | 2.91 ± 0.36 | 349 ± 83.2 | 0.64 ± 0.2 | no binding |  |  |  | 
